We go through six molecules from patent US20220048991A1 (BIOND BIOLOGICS, published 2022).

A word on the Kd: it is the free concentration of one partner at which half of the binding sites on the other are occupied at equilibrium, for simple one-to-one binding. As usually defined, the koff is the rate constant with which the complex falls apart. The kon is the second-order rate constant of association. What is called EC50 (read off the curve) is the concentration that produces a half-maximal response. Read a high EC50 (read off the curve) as a need for much substance.

Assay [1] has as its target T1, PIRB (UniProt P97484 25-642, limits assumed).
T1 sequence (looked up): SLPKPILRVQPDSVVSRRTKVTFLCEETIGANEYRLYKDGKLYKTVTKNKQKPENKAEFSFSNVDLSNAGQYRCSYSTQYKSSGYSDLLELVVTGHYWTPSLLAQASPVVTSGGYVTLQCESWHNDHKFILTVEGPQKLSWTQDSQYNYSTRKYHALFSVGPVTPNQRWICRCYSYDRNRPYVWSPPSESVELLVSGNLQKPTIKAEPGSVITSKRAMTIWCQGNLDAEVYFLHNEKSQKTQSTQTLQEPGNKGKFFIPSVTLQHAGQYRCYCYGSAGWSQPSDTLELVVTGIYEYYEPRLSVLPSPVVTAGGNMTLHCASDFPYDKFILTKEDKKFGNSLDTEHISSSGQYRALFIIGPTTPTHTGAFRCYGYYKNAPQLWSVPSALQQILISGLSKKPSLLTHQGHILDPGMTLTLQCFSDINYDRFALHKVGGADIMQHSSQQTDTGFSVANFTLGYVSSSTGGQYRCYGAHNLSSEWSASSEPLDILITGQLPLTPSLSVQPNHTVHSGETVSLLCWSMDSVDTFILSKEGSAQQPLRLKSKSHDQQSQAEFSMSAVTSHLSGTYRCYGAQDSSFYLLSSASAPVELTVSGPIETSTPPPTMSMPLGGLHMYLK
Nature of the assay: binding ELISA, column PIRB; negative control. (An ELISA detects its analyte on a solid surface through an enzyme-linked reagent.)

Assay [2] deals with T2, recombinant ILT2 (human) (human, UniProt Q8NHL6 24-461).
T2 construct: also called recombinant ILT2 peptide; ILT2 protein
Nature of the assay: binding ELISA, hILT2-Fc; negative control.

For assay [3], the target named is T3, ILT6 (UniProt Q8N6C8 24-439, limits assumed). Put plainly: binding ELISA, column hILT6-His; negative control.
The target of assay [4] is T4, LILRA1 (UniProt O75019 17-461, limits assumed). Put plainly: binding ELISA, column hLILRA1-His; negative control.
In assay [5] the target is T2, recombinant ILT2 (human). Nature of the assay: binding ELISA, hILT2-Fc; positive control is GHI/75 by paragraph 244.
In assay [6] the target is T5, human ILT2 fused to mouse CD3 zeta chain, on BW cells (human; mouse). Put plainly: cell-based or functional assay.
The target in assay [7] is T2, recombinant ILT2 (human). Nature of the assay: SPR (Biacore T200); KD relative to Control (chimeric 15G8). (Surface plasmon resonance follows binding to a sensor surface in real time, without labels.)
For assay [8], the target named is T2, recombinant ILT2 (human). Nature of the assay: SPR (Biacore T200), HEK EBNA supernatants on recombinant ILT2 peptide.
Assay [9] addresses T6, biotinylated recombinant human ILT2-Fc (human, UniProt Q8NHL6 24-458, limits assumed, conjugated with biotin (sites not given)).
T6 construct: Bought (Sino Biologics); the order of the parts is therefore uncertain; also called ILT2-biotin; biotinylated ILT2; not shown: Fc portion of human IgG1
Nature of the assay: flow cytometry blocking assay: ILT2-biotin binding to cells expressing HLA-G. Here is the method: (§1) Flow cytometry blocking assay—Recombinant human ILT2 protein fused with the Fc portion of human IgG1 at the N terminal was conjugated with biotin (Innova bioscience). A total of 5×10⁵ A375/HLA-G1 cells were incubated in a volume of 100 μL in the presence of anti-ILT2 clone #1 or isotype matched control mAb and ILT2-Fc conjugated with biotin (10 μg/mL) for 30 minutes at room temperature. After several washing steps, streptavidin-PE was added at a final concentration of 0.2 μg/mL and incubated for 30 min on ice followed by FACS analysis.
(§2) The ability of the generated anti-ILT2 antibodies to block the interaction between HLA-G and ILT2 was tested using four different assays. First, a blocking flow cytometry assay was performed. HLA-G transfected A375 cells were incubated with biotinylated ILT2 in the presence of the antibodies of the present disclosure and a positive control antibody. The commercially available anti-ILT2 antibody GHI/75 (BioLegend, Cat. No. 333704) was used as the positive control. The binding of ILT2-biotin to the cells was determined using Streptavidin-PE by flow cytometry analysis (FIG. 8A). The percent of blocking was determined by normalizing to a negative control (ILT2 binding in the presence of control IgG). […] The percentage of blocking was calculated at various concentrations of antibody (FIG. 8C).
(In general: In flow cytometry, cells or beads pass a laser one at a time.)

For assay [10], the target named is T6, biotinylated recombinant human ILT2-Fc. Put plainly: flow cytometry blocking assay: ILT2-biotin binding to cells expressing HLA-G [right panel]. How it is done:
as §1, §2

Assay [11] shares this target. Nature of the assay: B2M blocking ELISA: plate-bound recombinant human B2M-His, biotinylated ILT2-Fc at 20 µg/ml, titrated antibody, streptavidin-HRP; blocked ligand B2M. Here is the method: To test whether 15G8 can block the interaction between ILT2 and B2M, a B2M blocking ELISA was performed. 96 well nickel plates were coated with recombinant human B2M-His tag (3 μg/ml; Sino Biologics, 11976-H08H) overnight. Biotinylated ILT2-Fc (20 μg/ml; Sino Biologics, 1614-H02H; Innova Biosciences, 370-0010) was added for 2 hours at 37° C., which allowed ILT2 binding to B2M, in the presence or absence of titrated BND-22 or an irrelevant antibody (anti human CD28, Biolegend, 302934) (Ab range of 80-0.1 μg/ml, ×3 fold). ILT2 binding to B2M was detected by HRP conjugated streptavidin (R&D Systems, DY998). The absorbance was measured using an ELISA Reader (Biotek Synergy-H1 plate reader).

For assay [12], the target named is T1, PIRB. Put plainly: binding ELISA, column PIRB.
For assay [13], the target named is T2, recombinant ILT2 (human). Nature of the assay: binding ELISA, hILT2-Fc.
The target in assay [14] is T3, ILT6. Nature of the assay: binding ELISA, column hILT6-His.
The target in assay [15] is T4, LILRA1. Nature of the assay: binding ELISA, column hLILRA1-His.
The target in assay [16] is T6, biotinylated recombinant human ILT2-Fc. Put plainly: flow cytometry blocking assay: ILT2-biotin binding to cells expressing HLA-G [left panel]. Here is the method: as §1, §2
Assay [17] concerns the target T5, human ILT2 fused to mouse CD3 zeta …. Nature of the assay: flow cytometry on BW cells transfected with human ILT2; fold above background (FAB) [left panel].

T2 sequence (Q8NHL6 24-461 limits assumed): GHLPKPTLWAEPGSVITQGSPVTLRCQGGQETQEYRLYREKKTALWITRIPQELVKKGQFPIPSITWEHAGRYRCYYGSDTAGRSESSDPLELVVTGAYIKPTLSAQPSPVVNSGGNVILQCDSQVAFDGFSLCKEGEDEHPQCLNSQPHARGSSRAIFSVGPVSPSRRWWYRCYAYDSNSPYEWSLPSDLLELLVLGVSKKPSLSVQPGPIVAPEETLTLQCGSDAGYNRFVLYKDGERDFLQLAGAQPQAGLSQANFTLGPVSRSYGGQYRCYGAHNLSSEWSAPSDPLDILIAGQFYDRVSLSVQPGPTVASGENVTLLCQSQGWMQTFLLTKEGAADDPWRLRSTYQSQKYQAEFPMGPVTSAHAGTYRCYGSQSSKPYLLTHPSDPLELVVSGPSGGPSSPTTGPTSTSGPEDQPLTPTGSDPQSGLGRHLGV
T3 sequence (Q8N6C8 24-439 limits assumed): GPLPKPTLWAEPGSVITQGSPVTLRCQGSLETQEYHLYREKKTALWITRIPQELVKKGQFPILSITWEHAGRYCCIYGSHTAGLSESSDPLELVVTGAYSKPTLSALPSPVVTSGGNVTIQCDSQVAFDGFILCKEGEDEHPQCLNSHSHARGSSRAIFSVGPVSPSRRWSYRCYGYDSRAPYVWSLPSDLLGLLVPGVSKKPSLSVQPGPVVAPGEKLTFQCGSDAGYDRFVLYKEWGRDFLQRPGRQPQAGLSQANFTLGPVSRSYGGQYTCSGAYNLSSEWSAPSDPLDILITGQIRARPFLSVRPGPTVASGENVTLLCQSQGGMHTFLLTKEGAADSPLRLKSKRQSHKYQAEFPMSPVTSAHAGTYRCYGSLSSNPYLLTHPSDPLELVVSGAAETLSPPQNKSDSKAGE
T6 sequence (Q8NHL6 24-458 limits assumed): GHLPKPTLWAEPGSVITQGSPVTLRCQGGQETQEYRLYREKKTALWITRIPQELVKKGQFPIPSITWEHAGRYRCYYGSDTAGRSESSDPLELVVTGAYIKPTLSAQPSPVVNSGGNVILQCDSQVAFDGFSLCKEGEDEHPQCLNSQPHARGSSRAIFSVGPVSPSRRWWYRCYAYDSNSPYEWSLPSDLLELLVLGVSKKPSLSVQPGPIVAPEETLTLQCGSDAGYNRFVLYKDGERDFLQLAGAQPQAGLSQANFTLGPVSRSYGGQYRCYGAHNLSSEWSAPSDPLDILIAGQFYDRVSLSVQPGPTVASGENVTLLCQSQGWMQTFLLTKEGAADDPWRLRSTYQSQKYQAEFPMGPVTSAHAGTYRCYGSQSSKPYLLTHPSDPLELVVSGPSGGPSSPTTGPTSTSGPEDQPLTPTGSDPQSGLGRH
T4 sequence (O75019 17-461 limits assumed): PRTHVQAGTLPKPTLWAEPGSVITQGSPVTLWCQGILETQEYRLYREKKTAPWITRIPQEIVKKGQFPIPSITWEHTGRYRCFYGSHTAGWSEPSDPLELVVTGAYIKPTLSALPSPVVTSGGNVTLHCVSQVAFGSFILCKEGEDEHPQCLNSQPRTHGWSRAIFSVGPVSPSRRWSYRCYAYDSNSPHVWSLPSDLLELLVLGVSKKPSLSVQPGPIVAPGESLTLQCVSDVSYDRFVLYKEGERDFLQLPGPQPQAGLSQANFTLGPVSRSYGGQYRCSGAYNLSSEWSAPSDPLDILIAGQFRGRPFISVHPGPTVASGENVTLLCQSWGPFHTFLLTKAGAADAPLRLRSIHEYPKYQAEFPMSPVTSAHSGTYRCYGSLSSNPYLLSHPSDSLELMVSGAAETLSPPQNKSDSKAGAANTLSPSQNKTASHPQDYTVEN
T5 sequence (P24161 other isoform, or with tags, fused parts or gaps limits assumed): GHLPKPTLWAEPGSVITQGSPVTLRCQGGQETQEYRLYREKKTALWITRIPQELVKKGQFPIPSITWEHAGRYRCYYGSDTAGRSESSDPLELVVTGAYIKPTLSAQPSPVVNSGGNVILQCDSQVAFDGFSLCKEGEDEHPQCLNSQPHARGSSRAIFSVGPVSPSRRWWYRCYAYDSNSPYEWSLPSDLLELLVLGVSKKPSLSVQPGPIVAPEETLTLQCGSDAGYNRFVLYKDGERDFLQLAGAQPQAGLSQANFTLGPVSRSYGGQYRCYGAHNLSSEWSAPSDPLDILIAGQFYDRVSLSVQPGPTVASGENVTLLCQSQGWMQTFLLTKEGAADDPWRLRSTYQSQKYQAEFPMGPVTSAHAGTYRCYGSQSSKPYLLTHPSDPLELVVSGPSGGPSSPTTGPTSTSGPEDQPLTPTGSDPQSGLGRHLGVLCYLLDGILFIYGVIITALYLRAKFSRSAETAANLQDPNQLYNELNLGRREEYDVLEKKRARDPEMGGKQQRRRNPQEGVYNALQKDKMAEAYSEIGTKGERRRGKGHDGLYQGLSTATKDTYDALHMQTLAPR

In the case of Negative, the ELISA (OD) with PIRB [1] came out at 0.0575 OD; with recombinant ILT2 (human) [2], 0.05 OD; with ILT6 [3], 0.071 OD; with LILRA1 [4], 0.13 OD.
In the case of “GHI/75 (commercial mouse anti-human ILT2 antibody, BioLegend Cat. No. 333704)”, in the assay with recombinant ILT2 (human) [5], the ELISA (OD) is 2.45 OD.

B1: 15G8-13 (humanized 15G8, VH1/Vk3, alanine variant A108) (antibody, human IgG4 S228P, kappa, V domains shown)
VH: DVQLQGSGPGLVKPSETLSLTCSVTGYSITSGYYWNWIRQFPGKKLEWMGYISYDGSNNYNPSLKNRITISRDTSKNQFSLKLNSVTAADTATYYCAHGYSYYYAMDAWGQGTSVTVSS
VL: DIQMTQSPSSLSASVGDRVTITCRTSQDISNYLNWYQQKPGKAVKLLISYTSRLHSGVPSRFSGSGSGTDYTLTISSLQPEDFATYYCQQGNTLPTFGQGTKLEIKR
notes: Humanized IgG4 (S228P, L235E), kappa; also called 15G8 humanized antibody; BND-22
For B1, the “IC50 (read off the curve) of Blocking (%) in the BW-ILT2 / A375-HLA-G mouse IL-2 reporter assay” value in [6] is ~0.02 µg/mL. The “Relative KD” value with recombinant ILT2 (human) [7] was found to be 0.55. For the same molecule, in the assay with recombinant ILT2 (human) [8], the Kd came out at 6.94 nM, the koff was found to be 0.00905 s⁻¹ and the kon is 1.3e+06 M⁻¹ s⁻¹. Besides, in [9], the “IC50 (read off the curve)” value was ~0.3 µg/mL. The “IC50 (read off the curve)” value in assay [10] was ~0.2 µg/mL. In addition, the “IC50 (read off the curve)” value in assay [11] is ~8 µg/mL.

B2: 15G8 (hybridoma-derived, murine) (antibody, V domains shown)
VH: DVQLQGSGPGLVKPSQSLSLTCSVTGYSITSGYYWNWIRQFPGNKLEWMGYISYDGSNNYNPSLKNRISITRDTSKNQFFLKLNSVTSEDTATYYCAHGYSYYYAMDCWGQGTSVTVSS
VL: DIQMTQTTSSLSASLGDRVTISCRTSQDISNYLNWYQQKPDGTVKLLISYTSRLHSGVPSRFSGSGSGTDYSLTISNLEQEDIATYFCQQGNTLPTFGSGTKLEIK
notes: also called 15G8 antibody
Regarding B2, the “ELISA (OD)” value with PIRB [12] was found to be 0.08 OD; with recombinant ILT2 (human) [13], 1.11 OD; with ILT6 [14], 0.07 OD; with LILRA1 [15] it was 0.14 OD. Besides, the binding result in the assay with PIRB [12], with ILT6 [14] and with LILRA1 [15] was “no binding” throughout.

B3: chimeric 15G8 antibody (antibody, V domains shown)
VH: DVQLQGSGPGLVKPSQSLSLTCSVTGYSITSGYYWNWIRQFPGNKLEWMGYISYDGSNNYNPSLKNRISITRDTSKNQFFLKLNSVTSEDTATYYCAHGYSYYYAMDCWGQGTSVTVSS
VL: DIQMTQTTSSLSASLGDRVTISCRTSQDISNYLNWYQQKPDGTVKLLISYTSRLHSGVPSRFSGSGSGTDYSLTISNLEQEDIATYFCQQGNTLPTFGSGTKLEIK
notes: Chimeric form of murine 15G8
In the case of B3, the “Relative KD” value with recombinant ILT2 (human) [7] was determined as 1. For the same molecule, in the assay with recombinant ILT2 (human) [8], the Kd was 12.6 nM, the off-rate constant (koff) amounted to 0.0102 s⁻¹ and the association rate constant (kon) worked out at 808000 M⁻¹ s⁻¹. The “IC50 (read off the curve)” value in assay [10] was ~0.2 µg/mL.

B4: chimeric 19E3 (antibody, V domains shown)
VH: QVQLQQSGAELARPGASVKLSCKASGYTFTSYGISWVKQRTGQGLEWVGEIYPGSGNSYYNEKFKGKATLTADKSSSTAYMELRSLTSEDSAVYFCARSNDGYPDYWGQGTTLTVSS
VL: DIQMTQSSSYLSVSLGGRVTITCKASDHINNWLAWYQQKPGNAPRLLISGATSLETGVPSRFSGSGSGKDYTLSITSLQTEDVATYYCQQYWSTPWTFGGGTKLEIK
notes: Chimera of murine 19E3; also called chimeric murine 19E3
Turning to B4, the “IC50 (read off the curve)” value in assay [16] is ~0.6 µg/mL. The “EC50 (read off the curve)” value in assay [17] is ~0.6 µg/mL.
